Bridges are numbered along the chain shown (N, C = ends). Where no end group is shown, it is not given here. [ ]: non-standard residue; d: D form. 0P linker = not defined here; Nle = CCCC[C@H](N)C(=O)O
The binders below were run against T1, recombinant human VEGF165 (human, UniProt P15692-4 27-191) (assay: competition ELISA: VEGF165 binding to coated VEGFR2/Fc).
T1 construct: also called rhVEGF165
T1 sequence (P15692 other isoform, or with tags, fused parts or gaps limits assumed): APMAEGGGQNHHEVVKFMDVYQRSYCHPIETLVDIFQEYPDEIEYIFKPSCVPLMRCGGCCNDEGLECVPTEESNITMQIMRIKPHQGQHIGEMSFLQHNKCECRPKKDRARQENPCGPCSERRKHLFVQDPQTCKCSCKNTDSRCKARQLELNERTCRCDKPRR

Binder	IC50 [nM]
Ac-VEPNCDIHVMWVWECFERLMK-NH2 (disulfide 5-15 (inferred)) [[VEGF-Peptide] SEQ ID NO:62]	25
Ac-VEPNCDIHVMWVWECFERLVK-NH2 (disulfide 5-15 (inferred)) [[VEGF-Peptide] SEQ ID NO:48]	42.4
Ac-VEPNCDIHVMWVWECFERLYG-NH2 (disulfide 5-15 (inferred)) [[VEGF-Peptide] SEQ ID NO:47]	43.3
Ac-VEPNCDIHVMWVWVCFERLMK-NH2 (disulfide 5-15 (inferred)) [[VEGF-Peptide] SEQ ID NO:38]	92.6
Ac-VEPNCDIHVMWVWECFERLMR-NH2 (disulfide 5-15 (inferred)) [[VEGF-Peptide] SEQ ID NO:49]	34.5
Ac-VEPNCDIHVMWVWECFERLYK-NH2 (disulfide 5-15 (inferred)) [[VEGF-Peptide] SEQ ID NO:58]	25.1
Ac-VEPNCDIHVMWVWECFERLIK-NH2 (disulfide 5-15 (inferred)) [[VEGF-Peptide] SEQ ID NO:57]	25.4
Ac-VEPNCDIHVMWVWECFERLLK-NH2 (disulfide 5-15 (inferred)) [[VEGF-Peptide] SEQ ID NO:67]	10.1
Ac-VEPNCDIHVMWVWECFERL[Nle]K-NH2 (disulfide 5-15) [[VEGF-Peptide] SEQ ID NO:54]	28.6
Ac-VEPNCDIHVMWVWECFERL-NH2 (disulfide 5-15 (inferred)) [[VEGF-Peptide] SEQ ID NO:64]	24
Ac-VEPNCDIHVMWVWECFERLYGIF-NH2 (disulfide 5-15 (inferred)) [[VEGF-Peptide] SEQ ID NO:40]	78.3
Ac-VEPNCDIHVMWVWECFERLYGGG-NH2 (disulfide 5-15 (inferred)) [[VEGF-Peptide] SEQ ID NO:61]	23.6
Ac-VEPNCDIHVMWVWECFERLYGVQ-NH2 (disulfide 5-15 (inferred)) [[VEGF-Peptide] SEQ ID NO:74]	4
Ac-VEPNCDIHVMWVWECFERLYGPF-NH2 (disulfide 5-15 (inferred)) [[VEGF-Peptide] SEQ ID NO:77]	1.8
Ac-VEPNCDIHVMWVWECFERLYGLS-NH2 (disulfide 5-15 (inferred)) [[VEGF-Peptide] SEQ ID NO:71]	5.4
Ac-VEPNCDIHVMWVWECFERLYGLE-NH2 (disulfide 5-15 (inferred)) [[VEGF-Peptide] SEQ ID NO:75]	3
Ac-VEPNCDIHVMWVWECFERLMREL-NH2 (disulfide 5-15 (inferred)) [[VEGF-Peptide] SEQ ID NO:63]	24
Ac-VEPNCDIHVMWVWECFERLYGPL-NH2 (disulfide 5-15 (inferred)) [[VEGF-Peptide] SEQ ID NO:76]	2.3

Binder	IC50 [nM]
Ac-VEPNCDIHVMWVWECFERLYGGF-NH2 (disulfide 5-15 (inferred)) [[VEGF-Peptide] SEQ ID NO:56]	26.2
Ac-VEPNCDIHVMWVWECFERLYGLY-NH2 (disulfide 5-15 (inferred)) [[VEGF-Peptide] SEQ ID NO:44]	54.6
Ac-VEPNCDIHVMWVWECFERLYGIL-NH2 (disulfide 5-15 (inferred)) [[VEGF-Peptide] SEQ ID NO:50]	34.4
Ac-VEPNCDIHVMWVWECFERLMGLT-NH2 (disulfide 5-15 (inferred)) [[VEGF-Peptide] SEQ ID NO:59]	25
Ac-VEPNCDIHVMWVWECFERLYGEF-NH2 (disulfide 5-15 (inferred)) [[VEGF-Peptide] SEQ ID NO:70]	9.3
Ac-VEPNCDIHVMWVWECFERLYGPW-NH2 (disulfide 5-15 (inferred)) [[VEGF-Peptide] SEQ ID NO:66]	18.7
Ac-VEPNCDIHVMWVWECFERLMRLT-NH2 (disulfide 5-15 (inferred)) [[VEGF-Peptide] SEQ ID NO:46]	44.1
Ac-VEPNCDIHVMWVWECFERLFKEA-NH2 (disulfide 5-15 (inferred)) [[VEGF-Peptide] SEQ ID NO:53]	31.4
Ac-VEPNCDIHVMWVWECFERLMKEL-NH2 (disulfide 5-15 (inferred)) [[VEGF-Peptide] SEQ ID NO:65]	18
Ac-VEPNCDIHVMWVWECFERLYGWG-NH2 (disulfide 5-15 (inferred)) [[VEGF-Peptide] SEQ ID NO:42]	68.2
Ac-VEPNCDIHVMWVWECFERLSGGG-NH2 (disulfide 5-15 (inferred)) [[VEGF-Peptide] SEQ ID NO:45]	51
Ac-VEPNCDIHVMWVWVCFERLYGGG-NH2 (disulfide 5-15 (inferred)) [[VEGF-Peptide] SEQ ID NO:43]	66
Ac-VEPNCDIHVMWVWECFERL[dL]K(Ac)-NH2 (disulfide 5-15) [[VEGF-Peptide] SEQ ID NO:60]	25
Ac-VEPNCDIHVMWVWECFERLLK(Ac)-NH2 (disulfide 5-15) [[VEGF-Peptide] SEQ ID NO:68]	10
Ac-VEPNCDIHVMWVWECFERLYGG-NH2 (disulfide 5-15 (inferred)) [[VEGF-Peptide] SEQ ID NO:52]	32.3
Ac-VEPNCDIHVMWVWECFERLYGL-NH2 (disulfide 5-15 (inferred)) [[VEGF-Peptide] SEQ ID NO:72]	4.8
Ac-VEPNCDIHVMWVWECFERLY-NH2 (disulfide 5-15 (inferred)) [[VEGF-Peptide] SEQ ID NO:41]	69.9

The binders below were run against T2, human angiopoietin-2 protein (human, UniProt O15123 19-496) (assay: competitive ELISA: Tie-2-Fc binding to coated Ang-2; T).
T2 construct: also called Ang-2; Ang2
T2 sequence (looked up): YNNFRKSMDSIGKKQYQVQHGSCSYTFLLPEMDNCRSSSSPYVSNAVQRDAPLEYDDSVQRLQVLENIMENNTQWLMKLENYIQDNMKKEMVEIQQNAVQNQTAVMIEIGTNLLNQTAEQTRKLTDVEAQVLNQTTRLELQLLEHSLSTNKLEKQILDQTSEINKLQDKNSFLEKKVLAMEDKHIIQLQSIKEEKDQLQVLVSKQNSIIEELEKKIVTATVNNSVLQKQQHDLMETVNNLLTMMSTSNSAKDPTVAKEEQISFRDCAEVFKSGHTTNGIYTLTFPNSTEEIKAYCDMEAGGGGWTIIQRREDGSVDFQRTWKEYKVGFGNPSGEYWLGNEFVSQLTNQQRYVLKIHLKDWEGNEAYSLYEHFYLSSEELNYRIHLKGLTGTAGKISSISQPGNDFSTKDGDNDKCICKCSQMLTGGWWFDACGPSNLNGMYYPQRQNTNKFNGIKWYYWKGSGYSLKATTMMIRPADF
Procedure: Plates were washed three times with washing buffer (0.1% Tween 20, PBS, pH 7.4) and blocked with Superblock (Scytek), […] at room temperature (“RT”) for 1 hour. […] Plates were washed 3 times with washing buffer. […] Following incubation, 50 ul of 1:5,000 dilution of goat anti-mouse IgG-HRP in Superblock was then added and incubated at RT for one hour. After washing 3 times, […] was added, and incubated for 3-5 minutes. Color development was monitored and stopped with 25 μl of 2 M H₂SO₄. OD450 nm with a correction wavelength of 540 nm was measured.

Binder	IC50 [nM]
QK(Ac)YQPLDEK(0P linker)DETLYDQFMLQQG (reading uncertain; also: N-terminal acyl cap, C-terminal amino cap, printed as Q(Kac)Y QPL DEK(0P) DET LYD QFM LQQ G, also called 4033 T) [Compound 4033, peptide plus linker (T)]	370
QXYQPLDELDKTLFDQFMLQQG (N-terminal acyl cap; C-terminal amino cap; Kac 2; 0P linker on K11, also called 4044 T) [Compound 4044, peptide plus linker (T)]	36.9
QXYQPLDEIDKTLYDQFMLQQG (N-terminal acyl cap; C-terminal amino cap; Kac 2; 0P linker on K11, also called 4037 T) [Compound 4037, peptide plus linker (T)]	1270
QXYQPLDELDKTIYDQFMLQQG (N-terminal acyl cap; C-terminal amino cap; Kac 2; 0P linker on K11, also called 4036 T) [Compound 4036, peptide plus linker (T)]	2410
QXYQPLDELDKTLYDQFMLQQG (N-terminal acyl cap; C-terminal amino cap; Kac 2; 4P linker on K11, also called 4024 T) [Compound 4024, peptide plus linker (T)]	207
QKYQPLDELDKTLYDQFMLQQG-NH2 (not fully specified (N-terminus), also called 4026 T) [Compound 4026, peptide plus linker (T)]	32.3
QRYQPLDELDKTLYDQFMLQQG-NH2 (not fully specified (residue 11, N-terminus); printed as QRY QPL DEL DK(0P)T LYD QFM LQQ G; also: N-terminal acyl cap, also called 4059 T) [Compound 4059, peptide plus linker (T)]	177
QHYQPLDELDKTLYDQFMLQQG-NH2 (not fully specified (residue 11, N-terminus); printed as QHY QPL DEL DK(0P)T LYD QFM LQQ G; also: N-terminal acyl cap, also called 4060 T) [Compound 4060, peptide plus linker (T)]	214
QKYQPLDELDK(0P linker)TLYDQFMLQQG-NH2 (reading uncertain; also: N-terminal acyl cap, printed as QKY QPL DEL DK(0P)T LYD QFM LQQ G, also called 4027 T) [Compound 4027, peptide plus linker (T)]	29

— patent US20120321591A1 (COVX TECHNOLOGIES IRELAND, published 2012)
